From the supplement of paper PMC7877785
± gives the uncertainty stated by the source.

Experiment: self-splicing fitness, log relative to wild type (ln ratio); higher = more splicing; Tetrahymena group I intron in knt gene, E. coli kanamycin selection, DiMSum; sequences stand for … in CUCUCU…GGAGGGAAAAGUUAUCAGGCAUGCACCUGGUAGCUAGUCUUUAAACCAAUAGAUUGCAUCGGUUUAAAAGGCAAGACCGUCAAAUUGCGGGAAAGGGGUCAACAGCCGUUCAGUACCAAGUCUCAGGGGAAACUUUGAGAUGGCCUUGCAAAGGGUAUGGUAAUAAGCUGACGGACAUGGUCCUAACCACGCAGCCAAGUCCUAAGUCAACAGAUCUUCUGUUGAUAUGGAUGCAGUUCACAGACUAAAUGUCGGUCGGGGAAGAUGUAUUCUUCUCAUAAGAUAUAGUCGGACCUCUCCUUAAUGGGAGCUAGCGGAUGAAGUGAUGCAACACUGGAGCCGCUGGGAACUAAUUUGUAUGCGAAAGUAUAUUGAUUAGUUUUGGAGUACUCGUGGUCG
How it was run: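 Library with all eight P1ex-region intron nucleotides randomised, intron inside the knt kanamycin-resistance gene on pET-22b(+), in E. coli BL21(DE3). Cells grew overnight at 37°C or 30°C on LB agar with or without 25 μg/mL kanamycin (plus 100 μg/mL carbenicillin, 50 μM IPTG, 0.2% rhamnose), in six replicate transformations. Pooled colonies were amplicon-sequenced on Illumina HiSeq 2500. DiMSum fitness is the error-weighted combination of wild-type-normalised replicate fold changes, kanamycin versus none.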

Sequence	self-splicing fitness (ln) (30 °C)	self-splicing fitness (ln) (37 °C)
CUGAAGCAAUAUUACGGUUG	-0.0856 ± 0.068	0.139 ± 0.096
CUGAAGCAAUAUUACGUAAU	-2.87 ± 0.24	-2.17 ± 0.5
CUGAAGCAAUAUUACGUAGG	-3.21 ± 0.18	-2.36 ± 0.25
CUGAAGCAAUAUUACGUCCU	-3.45 ± 0.23	-2.39 ± 0.23
CUGAAGCAAUAUUACGUGAC	-1.24 ± 0.086	-0.353 ± 0.1
CUGAAGCAAUAUUACGUUGU	-4.42 ± 0.13	-2.28 ± 0.14
CUGCAGCAAUAUUACGACUA	-1.58 ± 0.13	-1.09 ± 0.12
CUGCAGCAAUAUUACGAGAC	-2.19 ± 0.16	-1.31 ± 0.16
CUGCAGCAAUAUUACGAGUC	-3.68 ± 0.23	-2.59 ± 0.41
CUGCAGCAAUAUUACGAGUG	-0.52 ± 0.053	0.112 ± 0.087
CUGCAGCAAUAUUACGAGUU	-3.55 ± 0.21	-2.83 ± 0.28
CUGCAGCAAUAUUACGAUUU	-4.06 ± 0.17	-1.7 ± 0.14
CUGCAGCAAUAUUACGCACA	-2.82 ± 0.19	-1.48 ± 0.19
CUGCAGCAAUAUUACGCGAC	-2.19 ± 0.14	-0.91 ± 0.12
CUGCAGCAAUAUUACGCGAG	-3.67 ± 0.17	-1.98 ± 0.15
CUGCAGCAAUAUUACGGCCG	-0.291 ± 0.12	-0.672 ± 0.14
CUGCAGCAAUAUUACGGCUA	-2.6 ± 0.19	-0.78 ± 0.17
CUGCAGCAAUAUUACGGGAG	-2.74 ± 0.11	-1.79 ± 0.12
CUGCAGCAAUAUUACGGGUG	-0.771 ± 0.049	-0.0809 ± 0.058
CUGCAGCAAUAUUACGGUCA	-3.07 ± 0.23	-2.18 ± 0.16
CUGCAGCAAUAUUACGUAAU	-4.74 ± 0.2	-2.04 ± 0.16
CUGCAGCAAUAUUACGUACU	-2.89 ± 0.2	-1.69 ± 0.21
CUGCAGCAAUAUUACGUAGU	-4.54 ± 0.45	-2.5 ± 0.28
CUGCAGCAAUAUUACGUCUA	-1.64 ± 0.12	-0.709 ± 0.15
CUGGAGCAAUAUUACGAAAU	-3.11 ± 0.22	-2.72 ± 0.29

Sequence	self-splicing fitness (ln) (30 °C)	self-splicing fitness (ln) (37 °C)
CUGGAGCAAUAUUACGAACG	-0.869 ± 0.15	0.129 ± 0.16
CUGGAGCAAUAUUACGAAUG	-1.88 ± 0.12	0.0741 ± 0.15
CUGGAGCAAUAUUACGACAA	-2.11 ± 0.2	-1.7 ± 0.2
CUGGAGCAAUAUUACGACAU	-2.19 ± 0.019	-1.3 ± 0.036
CUGGAGCAAUAUUACGACCG	-0.607 ± 0.082	0.106 ± 0.14
CUGGAGCAAUAUUACGAUAC	-2.26 ± 0.22	–
CUGGAGCAAUAUUACGAUGU	-3.26 ± 0.16	-2.97 ± 0.23
CUGGAGCAAUAUUACGAUUU	-4.07 ± 0.46	-2.01 ± 0.34
CUGGAGCAAUAUUACGCAGU	–	-1.99 ± 0.43
CUGGAGCAAUAUUACGCGGA	-1.86 ± 0.24	–
CUGGAGCAAUAUUACGGAGC	-3.08 ± 0.34	-2.38 ± 0.38
CUGGAGCAAUAUUACGGAUU	-3.29 ± 0.43	-2.83 ± 0.34
CUGGAGCAAUAUUACGGCAA	-2.52 ± 0.25	-2.75 ± 0.3
CUGGAGCAAUAUUACGGCUC	-2.58 ± 0.3	–
CUGGAGCAAUAUUACGGUCG	-1.2 ± 0.087	-0.266 ± 0.12
CUGGAGCAAUAUUACGUAUA	-3.12 ± 0.36	-2.48 ± 0.3
CUGGAGCAAUAUUACGUCGA	-3.15 ± 0.29	-2.82 ± 0.34
CUGGAGCAAUAUUACGUGAU	-2.53 ± 0.076	-1.18 ± 0.078
CUGGAGCAAUAUUACGUUGG	-2.89 ± 0.14	-1.86 ± 0.15
CUGUAGCAAUAUUACGAAAU	-3.22 ± 0.23	-2.54 ± 0.26
CUGUAGCAAUAUUACGAAGC	-4.57 ± 0.42	-2.67 ± 0.38
CUGUAGCAAUAUUACGACGA	-1.4 ± 0.19	-0.118 ± 0.15
CUGUAGCAAUAUUACGAGAA	–	-2.78 ± 0.38
CUGUAGCAAUAUUACGAGAC	-2.77 ± 0.2	-0.769 ± 0.14
